Here are results for 1 substance from publication PMC2745981.

The target in this assay is GFP-tagged GluR1 (ΔL2–3) (UniProt P19490). As to the kind of experiment: co-IP.
Chain of UniProt P19490 (P19490 19-907, stated change not applied): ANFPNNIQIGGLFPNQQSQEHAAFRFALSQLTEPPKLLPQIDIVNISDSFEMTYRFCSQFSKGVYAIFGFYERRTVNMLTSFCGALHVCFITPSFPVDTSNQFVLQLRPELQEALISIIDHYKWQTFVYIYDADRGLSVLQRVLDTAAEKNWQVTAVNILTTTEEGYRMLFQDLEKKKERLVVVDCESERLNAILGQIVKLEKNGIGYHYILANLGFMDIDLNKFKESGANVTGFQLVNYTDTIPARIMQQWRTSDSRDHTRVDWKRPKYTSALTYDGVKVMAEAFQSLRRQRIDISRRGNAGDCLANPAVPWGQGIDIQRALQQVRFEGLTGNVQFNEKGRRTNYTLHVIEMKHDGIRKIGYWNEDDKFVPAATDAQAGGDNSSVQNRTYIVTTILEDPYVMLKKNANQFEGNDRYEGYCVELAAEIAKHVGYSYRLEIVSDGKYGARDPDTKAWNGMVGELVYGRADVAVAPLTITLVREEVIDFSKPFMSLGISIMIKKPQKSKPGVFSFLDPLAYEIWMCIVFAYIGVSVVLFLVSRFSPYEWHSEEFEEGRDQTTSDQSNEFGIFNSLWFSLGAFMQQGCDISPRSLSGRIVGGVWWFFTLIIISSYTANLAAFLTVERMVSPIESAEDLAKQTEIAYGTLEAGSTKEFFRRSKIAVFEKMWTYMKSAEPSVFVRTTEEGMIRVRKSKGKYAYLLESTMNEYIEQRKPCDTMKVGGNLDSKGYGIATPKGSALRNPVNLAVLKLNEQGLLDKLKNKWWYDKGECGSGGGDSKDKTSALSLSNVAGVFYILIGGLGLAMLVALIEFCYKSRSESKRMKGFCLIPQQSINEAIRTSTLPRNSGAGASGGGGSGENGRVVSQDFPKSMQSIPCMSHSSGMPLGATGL

As for “HA-tagged p62 (from UniProt Q13501 1-440) (natural protein)”, the interaction, percent of control (wild-type GluR1) is 78 % of control.
